Common to all, as to experiment: cell-based or functional assay
Assay [1] concerns the target Rluc8 (92-311)-FKBP (Renilla) (UniProt P27652).
The target of assay [2] is FKBP-hRL (112-311) (Renilla) (UniProt P62942).
For assay [3] the target is unchanged. This is another data set of the same source.
Assay [4] addresses hRL (112-311)-FKBP (Renilla) (UniProt P27652).
For assay [5] the target is unchanged. The source holds these as a separate data set.
For assay [6], the target named is FKBP-hRL (92-311) (Renilla) (UniProt P62942).
FKBP-hRL (92-311) (Renilla), sequence (P62942 other isoform, or with tags, fused parts or gaps): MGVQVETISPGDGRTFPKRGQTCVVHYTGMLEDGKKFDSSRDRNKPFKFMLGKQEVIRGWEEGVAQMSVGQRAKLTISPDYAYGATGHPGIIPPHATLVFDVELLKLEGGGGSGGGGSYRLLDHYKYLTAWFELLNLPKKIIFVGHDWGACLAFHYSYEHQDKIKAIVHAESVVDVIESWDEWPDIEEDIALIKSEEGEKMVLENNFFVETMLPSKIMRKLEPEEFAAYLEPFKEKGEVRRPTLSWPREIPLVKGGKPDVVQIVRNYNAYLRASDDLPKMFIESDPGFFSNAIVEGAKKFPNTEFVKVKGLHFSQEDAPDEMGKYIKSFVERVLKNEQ
For assay [7] the target is unchanged. The source holds these as a separate data set.
Assay [8] concerns the target Rluc8 (112-311)-FKBP (Renilla) (UniProt P27652).
Assay [9] concerns the target hRL (92-311)-FKBP (Renilla) (UniProt P27652).
Assay [10] shares this target. The source holds these as a separate data set.

Read-outs that look alike come from different tables or passages of the source.

FKBP-hRL (112-311) (Renilla), sequence (P62942 other isoform, or with tags, fused parts or gaps): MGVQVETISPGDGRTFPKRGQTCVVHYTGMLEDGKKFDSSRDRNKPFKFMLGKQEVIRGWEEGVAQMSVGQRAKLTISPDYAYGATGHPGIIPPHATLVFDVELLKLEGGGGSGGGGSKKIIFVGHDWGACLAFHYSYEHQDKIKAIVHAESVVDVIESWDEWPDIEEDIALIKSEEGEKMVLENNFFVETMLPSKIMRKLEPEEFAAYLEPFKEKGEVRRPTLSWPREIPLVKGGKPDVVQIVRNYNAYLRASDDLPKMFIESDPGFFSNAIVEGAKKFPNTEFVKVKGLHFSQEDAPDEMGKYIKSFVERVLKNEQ
hRL (112-311)-FKBP (Renilla), sequence (P27652 other isoform, or with tags, fused parts or gaps): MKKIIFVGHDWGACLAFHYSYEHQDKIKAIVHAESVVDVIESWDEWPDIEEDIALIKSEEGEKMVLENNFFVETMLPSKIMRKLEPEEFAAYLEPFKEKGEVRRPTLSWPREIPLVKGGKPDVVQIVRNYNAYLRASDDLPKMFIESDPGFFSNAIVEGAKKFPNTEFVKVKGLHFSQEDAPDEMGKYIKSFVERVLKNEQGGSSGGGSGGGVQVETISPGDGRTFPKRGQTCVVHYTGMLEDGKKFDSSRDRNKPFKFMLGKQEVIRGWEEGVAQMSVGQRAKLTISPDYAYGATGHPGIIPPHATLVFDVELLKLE
hRL (1-111)-FRB, sequence (P27652 other isoform, or with tags, fused parts or gaps): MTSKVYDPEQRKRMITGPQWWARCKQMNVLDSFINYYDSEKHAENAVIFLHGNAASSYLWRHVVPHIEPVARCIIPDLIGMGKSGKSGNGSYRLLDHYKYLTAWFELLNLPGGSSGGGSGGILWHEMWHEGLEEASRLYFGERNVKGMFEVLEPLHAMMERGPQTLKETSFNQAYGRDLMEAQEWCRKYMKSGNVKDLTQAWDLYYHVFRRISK
hRL (92-311)-FKBP (Renilla), sequence (P27652 other isoform, or with tags, fused parts or gaps): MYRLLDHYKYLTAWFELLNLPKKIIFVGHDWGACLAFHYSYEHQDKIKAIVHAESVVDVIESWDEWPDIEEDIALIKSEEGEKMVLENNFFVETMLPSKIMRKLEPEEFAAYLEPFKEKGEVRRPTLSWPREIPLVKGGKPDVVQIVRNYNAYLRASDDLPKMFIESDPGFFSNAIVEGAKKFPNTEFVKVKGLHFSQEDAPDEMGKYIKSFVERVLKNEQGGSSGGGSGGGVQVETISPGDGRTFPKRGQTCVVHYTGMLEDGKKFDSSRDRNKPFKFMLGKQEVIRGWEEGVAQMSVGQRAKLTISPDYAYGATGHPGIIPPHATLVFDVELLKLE
hRL (1-91)-FRB, sequence (P27652 other isoform, or with tags, fused parts or gaps): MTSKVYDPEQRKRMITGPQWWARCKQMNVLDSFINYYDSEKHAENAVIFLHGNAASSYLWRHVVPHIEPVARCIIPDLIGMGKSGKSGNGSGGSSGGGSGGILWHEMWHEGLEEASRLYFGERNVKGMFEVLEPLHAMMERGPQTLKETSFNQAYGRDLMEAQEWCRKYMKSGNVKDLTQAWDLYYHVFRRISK
Rluc8 (112-311)-FKBP (Renilla), sequence (P27652 other isoform, or with tags, fused parts or gaps): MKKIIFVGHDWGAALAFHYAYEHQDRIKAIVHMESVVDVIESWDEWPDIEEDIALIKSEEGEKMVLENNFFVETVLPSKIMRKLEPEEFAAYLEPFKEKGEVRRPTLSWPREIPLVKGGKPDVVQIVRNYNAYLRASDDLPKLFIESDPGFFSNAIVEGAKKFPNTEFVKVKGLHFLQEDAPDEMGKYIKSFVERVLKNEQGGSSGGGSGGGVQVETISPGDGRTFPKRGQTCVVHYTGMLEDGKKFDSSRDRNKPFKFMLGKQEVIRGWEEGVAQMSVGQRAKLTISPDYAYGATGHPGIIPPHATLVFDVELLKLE
Rluc8 (1-111)-FRB, sequence (P27652 other isoform, or with tags, fused parts or gaps): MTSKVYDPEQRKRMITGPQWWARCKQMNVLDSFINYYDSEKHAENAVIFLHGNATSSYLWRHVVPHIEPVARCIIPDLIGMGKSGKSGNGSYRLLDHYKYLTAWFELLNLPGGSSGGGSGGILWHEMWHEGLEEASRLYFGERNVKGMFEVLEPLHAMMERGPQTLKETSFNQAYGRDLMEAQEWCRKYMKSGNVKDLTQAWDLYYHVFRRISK
Rluc8 (92-311)-FKBP (Renilla), sequence (P27652 other isoform, or with tags, fused parts or gaps): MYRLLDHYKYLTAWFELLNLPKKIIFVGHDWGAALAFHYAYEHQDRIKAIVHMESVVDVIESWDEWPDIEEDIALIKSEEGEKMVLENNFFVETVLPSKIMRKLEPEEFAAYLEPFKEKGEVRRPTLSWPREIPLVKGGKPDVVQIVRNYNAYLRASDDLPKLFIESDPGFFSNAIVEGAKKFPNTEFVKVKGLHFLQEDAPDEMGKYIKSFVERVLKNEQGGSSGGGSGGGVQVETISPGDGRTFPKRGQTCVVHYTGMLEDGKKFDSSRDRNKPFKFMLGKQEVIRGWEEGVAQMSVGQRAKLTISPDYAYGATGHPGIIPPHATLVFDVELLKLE
Rluc8 (1-91)-FRB, sequence (P27652 other isoform, or with tags, fused parts or gaps): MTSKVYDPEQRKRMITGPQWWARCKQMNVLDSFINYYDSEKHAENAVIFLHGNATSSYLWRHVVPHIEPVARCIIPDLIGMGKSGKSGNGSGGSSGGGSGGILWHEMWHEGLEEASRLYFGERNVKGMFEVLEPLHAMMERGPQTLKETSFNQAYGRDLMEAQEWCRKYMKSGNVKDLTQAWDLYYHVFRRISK

The substance “Rluc8 (1-91)-FRB (from UniProt P27652 1-91; P42345 2021-2113)” showed a Renilla luciferase activity, +rapamycin against no rapamycin in assay [1] of 4 fold.

Regarding “hRL (1-111)-FRB (from UniProt P27652 1-111; P42345 2021-2113)”, the Renilla luciferase activity, +rapamycin against no rapamycin in assay [2] amounted to 81 fold; in assay [3], 114 fold.

“FRB-hRL (1-111) (from UniProt P42345 2021-2113; P27652 1-111)”: the Renilla luciferase activity, +rapamycin against no rapamycin came to 5.3 fold in [2], 46 fold in assay [4] and 51 fold in [5].

Turning to “hRL (1-91)-FRB (from UniProt P27652 1-91; P42345 2021-2113)”, the Renilla luciferase activity, +rapamycin against no rapamycin was 8.6 fold in assay [6] and 13.5 fold in assay [7].

Substance “Rluc8 (1-111)-FRB (from UniProt P27652 1-111; P42345 2021-2113)” yielded a Renilla luciferase activity, +rapamycin against no rapamycin in assay [8] of 17 fold.

As to “FRB-hRL (1-91) (from UniProt P42345 2021-2113; P27652 1-91)”, the Renilla luciferase activity, +rapamycin against no rapamycin came out at 134 fold in assay [9] and 10.4 fold in assay [10].
